Measurements taken from patent US12679878B2, “CRF2 receptor agonists and their use in therapy” (SANOFI, priority 2020, dated 2026).
Starred links: 1 amine or outer side, 2 acyl side, 3 side chain; linkers in the order of their positions; H or OH if unused. Non-standard residues stand in square brackets, D forms with d. Groups on a side chain read outwards from the residue. No end group written: not given here. *: point of attachment. γGlu = O=C(O)[C@H](CCC(=O)[*:2])N[*:1]; Palmitoyl = CCCCCCCCCCCCCCCC(=O)*; Aib = CC(C)(N)C(=O)O

T1: CRF1R receptor (anti-target) (UniProt P34998 24-415, limits assumed)
T1 sequence (looked up): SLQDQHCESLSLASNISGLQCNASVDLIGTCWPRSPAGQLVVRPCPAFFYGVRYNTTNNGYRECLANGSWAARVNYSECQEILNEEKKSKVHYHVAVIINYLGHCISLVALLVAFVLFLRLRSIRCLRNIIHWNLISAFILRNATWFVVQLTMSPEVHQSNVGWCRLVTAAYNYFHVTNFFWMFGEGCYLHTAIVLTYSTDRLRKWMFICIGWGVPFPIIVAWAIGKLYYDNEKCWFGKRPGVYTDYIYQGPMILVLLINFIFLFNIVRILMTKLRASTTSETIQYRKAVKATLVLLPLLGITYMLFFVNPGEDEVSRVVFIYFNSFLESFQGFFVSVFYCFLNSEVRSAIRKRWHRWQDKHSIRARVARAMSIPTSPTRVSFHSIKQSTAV

B1: peptide of SEQ ID NO: 218 (peptide)
peptide: IVLSLD[dV]PIGLK([γGlu-Palmitoyl])QILLKQERQKK[Aib]REQAEKNKRILERV-NH2
modifications: N-terminus assumed
SMILES: CCCCCCCCCCCCCCCC(=O)N[C@@H](CCC(=O)NCCCC[C@H](NC(=O)[C@H](CC(C)C)NC(=O)CNC(=O)[C@@H](NC(=O)[C@@H]1CCCN1C(=O)[C@H](NC(=O)[C@H](CC(=O)O)NC(=O)[C@H](CC(C)C)NC(=O)[C@H](CO)NC(=O)[C@H](CC(C)C)NC(=O)[C@@H](NC(=O)[C@@H](N)[C@@H](C)CC)C(C)C)C(C)C)[C@@H](C)CC)C(=O)N[C@@H](CCC(N)=O)C(=O)N[C@H](C(=O)N[C@@H](CC(C)C)C(=O)N[C@@H](CC(C)C)C(=O)N[C@@H](CCCCN)C(=O)N[C@@H](CCC(N)=O)C(=O)N[C@@H](CCC(=O)O)C(=O)N[C@@H](CCCNC(=N)N)C(=O)N[C@@H](CCC(N)=O)C(=O)N[C@@H](CCCCN)C(=O)N[C@@H](CCCCN)C(=O)NC(C)(C)C(=O)N[C@@H](CCCNC(=N)N)C(=O)N[C@@H](CCC(=O)O)C(=O)N[C@@H](CCC(N)=O)C(=O)N[C@@H](C)C(=O)N[C@@H](CCC(=O)O)C(=O)N[C@@H](CCCCN)C(=O)N[C@@H](CC(N)=O)C(=O)N[C@@H](CCCCN)C(=O)N[C@@H](CCCNC(=N)N)C(=O)N[C@H](C(=O)N[C@@H](CC(C)C)C(=O)N[C@@H](CCC(=O)O)C(=O)N[C@@H](CCCNC(=N)N)C(=O)N[C@H](C(N)=O)C(C)C)[C@@H](C)CC)[C@@H](C)CC)C(=O)O
B2: peptide of SEQ ID NO: 214 (peptide)
peptide: IVLSLD[dV]PIKLK([γGlu-Palmitoyl])QILLKQERQKKQRQQAEKNKQILAQV-NH2
modifications: N-terminus assumed
SMILES: CCCCCCCCCCCCCCCC(=O)N[C@@H](CCC(=O)NCCCC[C@H](NC(=O)[C@H](CC(C)C)NC(=O)[C@H](CCCCN)NC(=O)[C@@H](NC(=O)[C@@H]1CCCN1C(=O)[C@H](NC(=O)[C@H](CC(=O)O)NC(=O)[C@H](CC(C)C)NC(=O)[C@H](CO)NC(=O)[C@H](CC(C)C)NC(=O)[C@@H](NC(=O)[C@@H](N)[C@@H](C)CC)C(C)C)C(C)C)[C@@H](C)CC)C(=O)N[C@@H](CCC(N)=O)C(=O)N[C@H](C(=O)N[C@@H](CC(C)C)C(=O)N[C@@H](CC(C)C)C(=O)N[C@@H](CCCCN)C(=O)N[C@@H](CCC(N)=O)C(=O)N[C@@H](CCC(=O)O)C(=O)N[C@@H](CCCNC(=N)N)C(=O)N[C@@H](CCC(N)=O)C(=O)N[C@@H](CCCCN)C(=O)N[C@@H](CCCCN)C(=O)N[C@@H](CCC(N)=O)C(=O)N[C@@H](CCCNC(=N)N)C(=O)N[C@@H](CCC(N)=O)C(=O)N[C@@H](CCC(N)=O)C(=O)N[C@@H](C)C(=O)N[C@@H](CCC(=O)O)C(=O)N[C@@H](CCCCN)C(=O)N[C@@H](CC(N)=O)C(=O)N[C@@H](CCCCN)C(=O)N[C@@H](CCC(N)=O)C(=O)N[C@H](C(=O)N[C@@H](CC(C)C)C(=O)N[C@@H](C)C(=O)N[C@@H](CCC(N)=O)C(=O)N[C@H](C(N)=O)C(C)C)[C@@H](C)CC)[C@@H](C)CC)C(=O)O
B3: peptide of SEQ ID NO: 220 (peptide)
peptide: IVLSLD[dV]PIGLK([γGlu-Palmitoyl])QILLKQERQKK[Aib]RQQAETNKRILERV-NH2
modifications: N-terminus assumed
SMILES: CCCCCCCCCCCCCCCC(=O)N[C@@H](CCC(=O)NCCCC[C@H](NC(=O)[C@H](CC(C)C)NC(=O)CNC(=O)[C@@H](NC(=O)[C@@H]1CCCN1C(=O)[C@H](NC(=O)[C@H](CC(=O)O)NC(=O)[C@H](CC(C)C)NC(=O)[C@H](CO)NC(=O)[C@H](CC(C)C)NC(=O)[C@@H](NC(=O)[C@@H](N)[C@@H](C)CC)C(C)C)C(C)C)[C@@H](C)CC)C(=O)N[C@@H](CCC(N)=O)C(=O)N[C@H](C(=O)N[C@@H](CC(C)C)C(=O)N[C@@H](CC(C)C)C(=O)N[C@@H](CCCCN)C(=O)N[C@@H](CCC(N)=O)C(=O)N[C@@H](CCC(=O)O)C(=O)N[C@@H](CCCNC(=N)N)C(=O)N[C@@H](CCC(N)=O)C(=O)N[C@@H](CCCCN)C(=O)N[C@@H](CCCCN)C(=O)NC(C)(C)C(=O)N[C@@H](CCCNC(=N)N)C(=O)N[C@@H](CCC(N)=O)C(=O)N[C@@H](CCC(N)=O)C(=O)N[C@@H](C)C(=O)N[C@@H](CCC(=O)O)C(=O)N[C@H](C(=O)N[C@@H](CC(N)=O)C(=O)N[C@@H](CCCCN)C(=O)N[C@@H](CCCNC(=N)N)C(=O)N[C@H](C(=O)N[C@@H](CC(C)C)C(=O)N[C@@H](CCC(=O)O)C(=O)N[C@@H](CCCNC(=N)N)C(=O)N[C@H](C(N)=O)C(C)C)[C@@H](C)CC)[C@@H](C)O)[C@@H](C)CC)C(=O)O
B4: peptide of SEQ ID NO: 219 (peptide)
peptide: IVLSLD[dV]PIKLK([γGlu-Palmitoyl])QILLKQARQK[Aib]QRAQAEKNKRILERV-NH2
modifications: N-terminus assumed
SMILES: CCCCCCCCCCCCCCCC(=O)N[C@@H](CCC(=O)NCCCC[C@H](NC(=O)[C@H](CC(C)C)NC(=O)[C@H](CCCCN)NC(=O)[C@@H](NC(=O)[C@@H]1CCCN1C(=O)[C@H](NC(=O)[C@H](CC(=O)O)NC(=O)[C@H](CC(C)C)NC(=O)[C@H](CO)NC(=O)[C@H](CC(C)C)NC(=O)[C@@H](NC(=O)[C@@H](N)[C@@H](C)CC)C(C)C)C(C)C)[C@@H](C)CC)C(=O)N[C@@H](CCC(N)=O)C(=O)N[C@H](C(=O)N[C@@H](CC(C)C)C(=O)N[C@@H](CC(C)C)C(=O)N[C@@H](CCCCN)C(=O)N[C@@H](CCC(N)=O)C(=O)N[C@@H](C)C(=O)N[C@@H](CCCNC(=N)N)C(=O)N[C@@H](CCC(N)=O)C(=O)N[C@@H](CCCCN)C(=O)NC(C)(C)C(=O)N[C@@H](CCC(N)=O)C(=O)N[C@@H](CCCNC(=N)N)C(=O)N[C@@H](C)C(=O)N[C@@H](CCC(N)=O)C(=O)N[C@@H](C)C(=O)N[C@@H](CCC(=O)O)C(=O)N[C@@H](CCCCN)C(=O)N[C@@H](CC(N)=O)C(=O)N[C@@H](CCCCN)C(=O)N[C@@H](CCCNC(=N)N)C(=O)N[C@H](C(=O)N[C@@H](CC(C)C)C(=O)N[C@@H](CCC(=O)O)C(=O)N[C@@H](CCCNC(=N)N)C(=O)N[C@H](C(N)=O)C(C)C)[C@@H](C)CC)[C@@H](C)CC)C(=O)O

These binders were tested against human corticotropin-releasing factor 2α (CRF2α receptor) (human), Q13324 (assay: cell-based or functional assay).

EC50 [nM], 0% HSA (cAMP, HTRF) [nM] | Binder
1.58 | B1
4.15 | B2
1.48 | B3
5.98 | B4

What follows are binders tested against human corticotropin-releasing factor 2α receptor (CRF2α receptor) (human), Q13324 (assay: cell-based or functional assay).

CRF2 EC50 (cAMP, HTRF) [nM] | Binder
1.58 | B1
4.15 | B2
1.48 | B3
5.98 | B4

What follows are binders tested against T1, CRF1R receptor (anti-target) (assay: cell-based or functional assay).

CRF1/CRF2 ratio (of EC50) | CRF1 EC50 (cAMP, HTRF) [nM] | Binder
4 | 6.97 | B1
1 | 4.27 | B2
6 | 8.91 | B3
2 | 13.5 | B4
